Measurements as given in publication PMC3836714, “MYB97, MYB101 and MYB120 Function as Male Factors That Control Pollen Tube-Synergid Interaction in Arabidopsis thaliana Fertilization”.

T1: MYB101 MYB domain (Arabidopsis thaliana, UniProt O80883 1-133)
T1 sequence: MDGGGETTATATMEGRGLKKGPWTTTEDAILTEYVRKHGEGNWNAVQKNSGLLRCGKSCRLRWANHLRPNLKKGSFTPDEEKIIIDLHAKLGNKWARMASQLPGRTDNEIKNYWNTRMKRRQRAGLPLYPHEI

B1: DG3WT (dsDNA)
DNA 1: ACGTCGGAAGGATTAACAAAAAAAAAGCCGTGGCGTT
DNA 2: AACGCCACGGCTTTTTTTTTGTTAATCCTTCCGACGT
B2: DG1WT (dsDNA)
DNA 1: TTATGCATATAACAAAAATAATTTCAATGC
DNA 2: GCATTGAAATTATTTTTGTTATATGCATAA
B3: mDG2WT (dsDNA)
DNA 1: GACACAAATCAACAGCTCGAGGACAAAATT
DNA 2: AATTTTGTCCTCGAGCTGTTGATTTGTGTC
B4: DG2WT (dsDNA)
DNA 1: GACACAAATCAACAGTAACAAAACAAAATT
DNA 2: AATTTTGTTTTGTTACTGTTGATTTGTGTC

Tests used:
MYB101 MYB domain [1] = target: T1, MYB101 MYB domain; assay: EMSA; 10 mM Tris-Cl, 50 mM KCl, 1 mM DTT, pH 7.5, room temperature 20 min; 20 fmol probe, 200 ng protein, 50 ng poly(dI-dC) in 20 ul; 6% native PAGE, 0.5x TBE; settings: protein: recombinant; tags: 6xHis (pET-30a(+)); annealed complementary oligonucleotides
MYB101 MYB domain [2] = target: T1, MYB101 MYB domain; assay: competition; 500x molar excess vs labeled DG2WT; 10 mM Tris-Cl, 50 mM KCl, 1 mM DTT, pH 7.5, room temperature 20 min; 20 fmol probe, 200 ng protein, 50 ng poly(dI-dC) in 20 ul; 6% native PAGE, 0.5x TBE; settings: protein: recombinant; tags: 6xHis (pET-30a(+)); annealed complementary oligonucleotides

| Binder | binding result (MYB101 MYB domain [1]) | binding result (MYB101 MYB domain [2]) |
| --- | --- | --- |
| B1 | binds | – |
| B2 | binds | – |
| B3 | – | no binding |
| B4 | binds | – |
